Biological target: T1, human antigen that binds to mAb1 (human LINGO-1) (human, UniProt Q96FE5 42-538, limits assumed)
T1 sequence (looked up): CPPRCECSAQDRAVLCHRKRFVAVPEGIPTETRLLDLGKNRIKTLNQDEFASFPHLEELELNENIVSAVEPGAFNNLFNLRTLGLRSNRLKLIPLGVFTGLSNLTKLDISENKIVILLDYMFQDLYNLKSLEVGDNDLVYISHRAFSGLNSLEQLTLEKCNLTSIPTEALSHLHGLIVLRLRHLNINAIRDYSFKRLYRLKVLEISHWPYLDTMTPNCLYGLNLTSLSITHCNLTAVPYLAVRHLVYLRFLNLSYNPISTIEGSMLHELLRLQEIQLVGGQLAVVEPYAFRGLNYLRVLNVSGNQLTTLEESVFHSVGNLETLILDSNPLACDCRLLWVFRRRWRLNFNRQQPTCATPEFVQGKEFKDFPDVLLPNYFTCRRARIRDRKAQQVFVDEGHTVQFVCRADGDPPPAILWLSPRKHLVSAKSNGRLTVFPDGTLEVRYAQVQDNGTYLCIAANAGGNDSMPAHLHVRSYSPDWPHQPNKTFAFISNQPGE
Experiment: direct binding ELISA on plate-coated human antigen; preparation with 39% trisulfide at LC5-HC5
Description: Costar 96-well easy wash plates were coated overnight with 5 μg/mL human antigen that binds to mAb1 (50 μL/well), in 50 mM sodium carbonate (pH 9.5) at 4° C. Plates were washed 3 times with 350 μL of PBS using a plate washer and blocked with 1% BSA, 0.1% ovalbumin, and 0.1% non-fat dry milk in Hank's balanced salt buffer containing 25 mM HEPES (pH 7.0) for 1 hour at room temperature. Plates were then washed again, and incubated for 1 h with a 3-fold dilution series set up for each test compound (50 μL/well, 8 dilutions) starting at 10 μg/mL and all in 0.1% BSA, 0.1% ovalbumin, and 0.1% non-fat dry milk in Hank's balanced salt buffer containing 25 mM HEPES (pH 7.0), and again washed. Bound mAb1 was detected using AP-anti-human Fab. […] Plates were read at 405 nm on a Molecular Devices plate reader. EC₅₀ values for binding were calculated from the titration curve using prism software. The function of mAb2 was assessed as for mAb1 except that 96 well microplates were coated overnight at 4° C. with 1 μg/mL (in 15 mM Na₂CO₃, 35 mM NaHCO₃, pH 9.6) of a human antigen that binds to mAb2. […] Binding was determined using a horseradish peroxidase-conjugated goat anti-human polyclonal antibody (Jackson ImmunoResearch, West Grove, Pa.) followed by measurement of horse radish peroxidase activity using the substrate tetramethylbenzidine.

B1: anti-LINGO-1 antibody Li81 (antibody, V domains shown)
VH: EVQLLESGGGLVQPGGSLRLSCAASGFTFSAYEMKWVRQAPGKGLEWVSVIGPSGGFTFYADSVKGRFTISRDNSKNTLYLQMNSLRAEDTAVYYCATEGDNDAFDIWGQGTTVTVSS
VL: DIQMTQSPATLSLSPGERATLSCRASQSVSSYLAWYQQKPGQAPRLLIYDASNRATGIPARFSGSGSGTDFTLTISSLEPEDFAVYYCQQRSNWPMYTFGQGTKLEIK
notes: Tested as an aglycosyl human IgG1 made in CHO cells; They differ only in the share of trisulfide at the light-heavy (LC5-HC5) interchain bond; also called mAb1; Mab1
With B1 as the binder, how does the EC50 read?
Its EC50 is 0.02 nM.

Reference: patent US20150274808A1 (Biogen, published 2015)
